Patent publication US20260049138A1 (Chugai, published 2026)

B1: CE115HA000 Y58S one-arm antibody (antibody, human IgG1, kappa, L234A L235A, N297A, name in Kabat numbering)
heavy: QVQLVESGGGVVQPGRSLRLSCAASGFTFSNAWMHWVRQAPGKGLEWVAQIKAKSNNYATSYAESVKGRFTISRDDSKNSLYLQMNSLKTEDTAVYYCRYVHYGAYYGVDAWGQGTTVTVSSASTKGPSVFPLAPSSKSTSGGTAALGCLVKDYFPEPVTVSWNSGALTSGVHTFPAVLQSSGLYSLSSVVTVPSSSLGTQTYICNVNHKPSNTKVDKKVEPKSCDKTHTCPPCPAPEAAGGPSVFLFPPKPKDTLMISRTPEVTCVVVDVSHEDPEVKFNWYVDGVEVHNAKTKPREEQYASTYRVVSVLTVLHQDWLNGKEYKCKVSNKALPAPIEKTISKAKGQPREPQVYTLPPSRCELTKNQVSLSCAVKGFYPSDIAVEWESNGQPENNYKTTPPVLDSDGSFFLVSKLTVDKSRWQQGNVFSCSVMHEALHNHYTQKSLSLSPDYKDDDDK
chain: EPKSSDKTHTCPPCPAPELLGGPSVFLFPPKPKDTLMISRTPEVTCVVVDVSHEDPEVKFNWYVDGVEVHNAKTKPREEQYNSTYRVVSVLTVLHQDWLNGKEYKCKVSNKALPAPIEKTISKAKGQPREPQVCTLPPSRDELTKNQVSLWCLVKGFYPSDIAVEWESNGQPENNYKTTPPVLDSDGSFFLYSKLTVDKSRWQQGNVFSCSVMHEALHNRYTQKSLSLSP
light: DIVMTQSPLSLPVTPGEPASISCRSSQSLVHSNRNTYLHWYQQKPGQAPRLLIYKVSNRFSGVPDRFSGSGSGTDFTLKISRVEAEDVGVYYCGQGTQVPYTFGQGTKLEIKRTVAAPSVFIFPPSDEQLKSGTASVVCLLNNFYPREAKVQWKVDNALQSGNSQESVTEQDSKDSTYSLSSTLTLSKADYEKHKVYACEVTHQGLSSPVTKSFNRGEC
B2: CE115HA000 Y59D one-arm antibody (antibody, human IgG1, kappa, L234A L235A, N297A, name in Kabat numbering)
heavy: QVQLVESGGGVVQPGRSLRLSCAASGFTFSNAWMHWVRQAPGKGLEWVAQIKAKSNNYATYDAESVKGRFTISRDDSKNSLYLQMNSLKTEDTAVYYCRYVHYGAYYGVDAWGQGTTVTVSSASTKGPSVFPLAPSSKSTSGGTAALGCLVKDYFPEPVTVSWNSGALTSGVHTFPAVLQSSGLYSLSSVVTVPSSSLGTQTYICNVNHKPSNTKVDKKVEPKSCDKTHTCPPCPAPEAAGGPSVFLFPPKPKDTLMISRTPEVTCVVVDVSHEDPEVKFNWYVDGVEVHNAKTKPREEQYASTYRVVSVLTVLHQDWLNGKEYKCKVSNKALPAPIEKTISKAKGQPREPQVYTLPPSRCELTKNQVSLSCAVKGFYPSDIAVEWESNGQPENNYKTTPPVLDSDGSFFLVSKLTVDKSRWQQGNVFSCSVMHEALHNHYTQKSLSLSPDYKDDDDK
chain: EPKSSDKTHTCPPCPAPELLGGPSVFLFPPKPKDTLMISRTPEVTCVVVDVSHEDPEVKFNWYVDGVEVHNAKTKPREEQYNSTYRVVSVLTVLHQDWLNGKEYKCKVSNKALPAPIEKTISKAKGQPREPQVCTLPPSRDELTKNQVSLWCLVKGFYPSDIAVEWESNGQPENNYKTTPPVLDSDGSFFLYSKLTVDKSRWQQGNVFSCSVMHEALHNRYTQKSLSLSP
light: DIVMTQSPLSLPVTPGEPASISCRSSQSLVHSNRNTYLHWYQQKPGQAPRLLIYKVSNRFSGVPDRFSGSGSGTDFTLKISRVEAEDVGVYYCGQGTQVPYTFGQGTKLEIKRTVAAPSVFIFPPSDEQLKSGTASVVCLLNNFYPREAKVQWKVDNALQSGNSQESVTEQDSKDSTYSLSSTLTLSKADYEKHKVYACEVTHQGLSSPVTKSFNRGEC
B3: CE115HA000 Y97A one-arm antibody (antibody, human IgG1, kappa, L234A L235A, N297A, name in Kabat numbering)
heavy: QVQLVESGGGVVQPGRSLRLSCAASGFTFSNAWMHWVRQAPGKGLEWVAQIKAKSNNYATYYAESVKGRFTISRDDSKNSLYLQMNSLKTEDTAVYYCRYVHAGAYYGVDAWGQGTTVTVSSASTKGPSVFPLAPSSKSTSGGTAALGCLVKDYFPEPVTVSWNSGALTSGVHTFPAVLQSSGLYSLSSVVTVPSSSLGTQTYICNVNHKPSNTKVDKKVEPKSCDKTHTCPPCPAPEAAGGPSVFLFPPKPKDTLMISRTPEVTCVVVDVSHEDPEVKFNWYVDGVEVHNAKTKPREEQYASTYRVVSVLTVLHQDWLNGKEYKCKVSNKALPAPIEKTISKAKGQPREPQVYTLPPSRCELTKNQVSLSCAVKGFYPSDIAVEWESNGQPENNYKTTPPVLDSDGSFFLVSKLTVDKSRWQQGNVFSCSVMHEALHNHYTQKSLSLSPDYKDDDDK
chain: EPKSSDKTHTCPPCPAPELLGGPSVFLFPPKPKDTLMISRTPEVTCVVVDVSHEDPEVKFNWYVDGVEVHNAKTKPREEQYNSTYRVVSVLTVLHQDWLNGKEYKCKVSNKALPAPIEKTISKAKGQPREPQVCTLPPSRDELTKNQVSLWCLVKGFYPSDIAVEWESNGQPENNYKTTPPVLDSDGSFFLYSKLTVDKSRWQQGNVFSCSVMHEALHNRYTQKSLSLSP
light: DIVMTQSPLSLPVTPGEPASISCRSSQSLVHSNRNTYLHWYQQKPGQAPRLLIYKVSNRFSGVPDRFSGSGSGTDFTLKISRVEAEDVGVYYCGQGTQVPYTFGQGTKLEIKRTVAAPSVFIFPPSDEQLKSGTASVVCLLNNFYPREAKVQWKVDNALQSGNSQESVTEQDSKDSTYSLSSTLTLSKADYEKHKVYACEVTHQGLSSPVTKSFNRGEC
B4: CE115HA000 Y59S one-arm antibody (antibody, human IgG1, kappa, L234A L235A, N297A, name in Kabat numbering)
heavy: QVQLVESGGGVVQPGRSLRLSCAASGFTFSNAWMHWVRQAPGKGLEWVAQIKAKSNNYATYSAESVKGRFTISRDDSKNSLYLQMNSLKTEDTAVYYCRYVHYGAYYGVDAWGQGTTVTVSSASTKGPSVFPLAPSSKSTSGGTAALGCLVKDYFPEPVTVSWNSGALTSGVHTFPAVLQSSGLYSLSSVVTVPSSSLGTQTYICNVNHKPSNTKVDKKVEPKSCDKTHTCPPCPAPEAAGGPSVFLFPPKPKDTLMISRTPEVTCVVVDVSHEDPEVKFNWYVDGVEVHNAKTKPREEQYASTYRVVSVLTVLHQDWLNGKEYKCKVSNKALPAPIEKTISKAKGQPREPQVYTLPPSRCELTKNQVSLSCAVKGFYPSDIAVEWESNGQPENNYKTTPPVLDSDGSFFLVSKLTVDKSRWQQGNVFSCSVMHEALHNHYTQKSLSLSPDYKDDDDK
chain: EPKSSDKTHTCPPCPAPELLGGPSVFLFPPKPKDTLMISRTPEVTCVVVDVSHEDPEVKFNWYVDGVEVHNAKTKPREEQYNSTYRVVSVLTVLHQDWLNGKEYKCKVSNKALPAPIEKTISKAKGQPREPQVCTLPPSRDELTKNQVSLWCLVKGFYPSDIAVEWESNGQPENNYKTTPPVLDSDGSFFLYSKLTVDKSRWQQGNVFSCSVMHEALHNRYTQKSLSLSP
light: DIVMTQSPLSLPVTPGEPASISCRSSQSLVHSNRNTYLHWYQQKPGQAPRLLIYKVSNRFSGVPDRFSGSGSGTDFTLKISRVEAEDVGVYYCGQGTQVPYTFGQGTKLEIKRTVAAPSVFIFPPSDEQLKSGTASVVCLLNNFYPREAKVQWKVDNALQSGNSQESVTEQDSKDSTYSLSSTLTLSKADYEKHKVYACEVTHQGLSSPVTKSFNRGEC
B5: CE115HA000 Y59E one-arm antibody (antibody, human IgG1, kappa, L234A L235A, N297A, name in Kabat numbering)
heavy: QVQLVESGGGVVQPGRSLRLSCAASGFTFSNAWMHWVRQAPGKGLEWVAQIKAKSNNYATYEAESVKGRFTISRDDSKNSLYLQMNSLKTEDTAVYYCRYVHYGAYYGVDAWGQGTTVTVSSASTKGPSVFPLAPSSKSTSGGTAALGCLVKDYFPEPVTVSWNSGALTSGVHTFPAVLQSSGLYSLSSVVTVPSSSLGTQTYICNVNHKPSNTKVDKKVEPKSCDKTHTCPPCPAPEAAGGPSVFLFPPKPKDTLMISRTPEVTCVVVDVSHEDPEVKFNWYVDGVEVHNAKTKPREEQYASTYRVVSVLTVLHQDWLNGKEYKCKVSNKALPAPIEKTISKAKGQPREPQVYTLPPSRCELTKNQVSLSCAVKGFYPSDIAVEWESNGQPENNYKTTPPVLDSDGSFFLVSKLTVDKSRWQQGNVFSCSVMHEALHNHYTQKSLSLSPDYKDDDDK
chain: EPKSSDKTHTCPPCPAPELLGGPSVFLFPPKPKDTLMISRTPEVTCVVVDVSHEDPEVKFNWYVDGVEVHNAKTKPREEQYNSTYRVVSVLTVLHQDWLNGKEYKCKVSNKALPAPIEKTISKAKGQPREPQVCTLPPSRDELTKNQVSLWCLVKGFYPSDIAVEWESNGQPENNYKTTPPVLDSDGSFFLYSKLTVDKSRWQQGNVFSCSVMHEALHNRYTQKSLSLSP
light: DIVMTQSPLSLPVTPGEPASISCRSSQSLVHSNRNTYLHWYQQKPGQAPRLLIYKVSNRFSGVPDRFSGSGSGTDFTLKISRVEAEDVGVYYCGQGTQVPYTFGQGTKLEIKRTVAAPSVFIFPPSDEQLKSGTASVVCLLNNFYPREAKVQWKVDNALQSGNSQESVTEQDSKDSTYSLSSTLTLSKADYEKHKVYACEVTHQGLSSPVTKSFNRGEC
B6: CE115HA000 Y59A one-arm antibody (antibody, human IgG1, kappa, L234A L235A, N297A, name in Kabat numbering)
heavy: QVQLVESGGGVVQPGRSLRLSCAASGFTFSNAWMHWVRQAPGKGLEWVAQIKAKSNNYATYAAESVKGRFTISRDDSKNSLYLQMNSLKTEDTAVYYCRYVHYGAYYGVDAWGQGTTVTVSSASTKGPSVFPLAPSSKSTSGGTAALGCLVKDYFPEPVTVSWNSGALTSGVHTFPAVLQSSGLYSLSSVVTVPSSSLGTQTYICNVNHKPSNTKVDKKVEPKSCDKTHTCPPCPAPEAAGGPSVFLFPPKPKDTLMISRTPEVTCVVVDVSHEDPEVKFNWYVDGVEVHNAKTKPREEQYASTYRVVSVLTVLHQDWLNGKEYKCKVSNKALPAPIEKTISKAKGQPREPQVYTLPPSRCELTKNQVSLSCAVKGFYPSDIAVEWESNGQPENNYKTTPPVLDSDGSFFLVSKLTVDKSRWQQGNVFSCSVMHEALHNHYTQKSLSLSPDYKDDDDK
chain: EPKSSDKTHTCPPCPAPELLGGPSVFLFPPKPKDTLMISRTPEVTCVVVDVSHEDPEVKFNWYVDGVEVHNAKTKPREEQYNSTYRVVSVLTVLHQDWLNGKEYKCKVSNKALPAPIEKTISKAKGQPREPQVCTLPPSRDELTKNQVSLWCLVKGFYPSDIAVEWESNGQPENNYKTTPPVLDSDGSFFLYSKLTVDKSRWQQGNVFSCSVMHEALHNRYTQKSLSLSP
light: DIVMTQSPLSLPVTPGEPASISCRSSQSLVHSNRNTYLHWYQQKPGQAPRLLIYKVSNRFSGVPDRFSGSGSGTDFTLKISRVEAEDVGVYYCGQGTQVPYTFGQGTKLEIKRTVAAPSVFIFPPSDEQLKSGTASVVCLLNNFYPREAKVQWKVDNALQSGNSQESVTEQDSKDSTYSLSSTLTLSKADYEKHKVYACEVTHQGLSSPVTKSFNRGEC

Molecular target: T1, CD3ε homodimer protein (human, UniProt P07766 23-126, limits assumed, sulfo-tag or biotin label in the ECL assays; amine-coupled to the chip in SPR)
T1 construct: also called human CD3ε homodimer protein; CD3 (CD3ε)
T1 sequence (P07766 23-126 limits assumed): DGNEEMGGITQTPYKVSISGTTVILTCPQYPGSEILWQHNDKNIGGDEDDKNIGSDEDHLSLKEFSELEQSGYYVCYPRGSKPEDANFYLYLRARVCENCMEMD
Assay: SPR Biacore T200; CD3ε homodimer on CM4 chip;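 note: Single-residue variant antibodies injected as analyte over CD3ε homodimer immobilized by amine coupling, run at 25 °C in HBS-EP+ buffer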

First: B1
Second: B2
The “ratio of amounts bound Z=Y/X (altered form / CE115HA000)” value of the first is lower: 0.18 for the first, 0.7 for the second.

Compared with B3, B4 is higher in “ratio of amounts bound Z=Y/X (altered form / CE115HA000)” value: 0.16 for the first, 0.94 for the second.

Going from B5 to B6, the “ratio of amounts bound Z=Y/X (altered form / CE115HA000)” value falls from 0.86 to 0.85.
